In the supplement of paper PMC10567573:

B1: SNX3 (parent)
chain: FLRQLPFRGDDGIFDDNFIEERKQ
B2: WDR41 (parent)
chain: WTMQAYERNFWDPSPQLDTQQEIK

Variants of: B1
Assay: protein stability index of a GFP-peptide fusion (GPS, HEK-293T) (PSI 1-6); higher = more stable
Details: c terminus: a fixed tail appended
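Further: lentivirally expressed fusions sorted by FACS into six bins by GFP to DsRed ratio, PSI derived from sequencing read proportions per bin multiplied by bin number.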

| Variant | protein stability index |
| --- | --- |
| FLRFLPFRGDDGIFDDNFIEERKQ [Q4F] | 2.44 |
| FLRLLPFRGDDGIFDDNFIEERKQ [Q4L] | 1.91 |
| FLRILPFRGDDGIFDDNFIEERKQ [Q4I] | 2.55 |
| FLRALPFRGDDGIFDDNFIEERKQ [Q4A] | 3.78 |
| FLRGLPFRGDDGIFDDNFIEERKQ [Q4G] | 4.33 |
| FLRELPFRGDDGIFDDNFIEERKQ [Q4E] | 3.85 |
| FLRKLPFRGDDGIFDDNFIEERKQ [Q4K] | 2.67 |
| FLRHLPFRGDDGIFDDNFIEERKQ [Q4H] | 2.94 |
| FLRDLPFRGDDGIFDDNFIEERKQ [Q4D] | 4.26 |
| FLRCLPFRGDDGIFDDNFIEERKQ [Q4C] | 2.83 |
| FERQLPFRGDDGIFDDNFIEERKQ [L2E] | 4.87 |
| FNRQLPFRGDDGIFDDNFIEERKQ [L2N] | 4.08 |
| FDRQLPFRGDDGIFDDNFIEERKQ [L2D] | 4.72 |
| FVRQLPFRGDDGIFDDNFIEERKQ [L2V] | 2.19 |
| FSRQLPFRGDDGIFDDNFIEERKQ [L2S] | 4.56 |
| FARQLPFRGDDGIFDDNFIEERKQ [L2A] | 3.84 |
| FIRQLPFRGDDGIFDDNFIEERKQ [L2I] | 2.59 |
| FCRQLPFRGDDGIFDDNFIEERKQ [L2C] | 3.48 |
| FMRQLPFRGDDGIFDDNFIEERKQ [L2M] | 4.01 |
| FKRQLPFRGDDGIFDDNFIEERKQ [L2K] | 2.81 |
| FYRQLPFRGDDGIFDDNFIEERKQ [L2Y] | 4.46 |
| FWRQLPFRGDDGIFDDNFIEERKQ [L2W] | 3.02 |

| Variant | protein stability index |
| --- | --- |
| FPRQLPFRGDDGIFDDNFIEERKQ [L2P] | 4.66 |
| FHRQLPFRGDDGIFDDNFIEERKQ [L2H] | 2.34 |
| FQRQLPFRGDDGIFDDNFIEERKQ [L2Q] | 3.07 |
| FTRQLPFRGDDGIFDDNFIEERKQ [L2T] | 4.04 |
| FGRQLPFRGDDGIFDDNFIEERKQ [L2G] | 4.59 |
| FFRQLPFRGDDGIFDDNFIEERKQ [L2F] | 3.16 |
| FLHQLPFRGDDGIFDDNFIEERKQ [R3H] | 3.12 |
| FLYQLPFRGDDGIFDDNFIEERKQ [R3Y] | 2.28 |
| FLFQLPFRGDDGIFDDNFIEERKQ [R3F] | 1.97 |
| FLVQLPFRGDDGIFDDNFIEERKQ [R3V] | 2.98 |
| FLWQLPFRGDDGIFDDNFIEERKQ [R3W] | 1.83 |
| FLQQLPFRGDDGIFDDNFIEERKQ [R3Q] | 3.62 |
| FLLQLPFRGDDGIFDDNFIEERKQ [R3L] | 1.94 |
| FLCQLPFRGDDGIFDDNFIEERKQ [R3C] | 2.71 |
| FLAQLPFRGDDGIFDDNFIEERKQ [R3A] | 3.28 |
| FLMQLPFRGDDGIFDDNFIEERKQ [R3M] | 2.76 |
| FLSQLPFRGDDGIFDDNFIEERKQ [R3S] | 3.1 |
| FLIQLPFRGDDGIFDDNFIEERKQ [R3I] | 2.42 |
| FLGQLPFRGDDGIFDDNFIEERKQ [R3G] | 3.1 |
| FLNQLPFRGDDGIFDDNFIEERKQ [R3N] | 3.48 |
| FLDQLPFRGDDGIFDDNFIEERKQ [R3D] | 3.45 |
| FLTQLPFRGDDGIFDDNFIEERKQ [R3T] | 3.17 |

| Variant | protein stability index |
| --- | --- |
| FLEQLPFRGDDGIFDDNFIEERKQ [R3E] | 3.2 |
| FLKQLPFRGDDGIFDDNFIEERKQ [R3K] | 3.43 |
| FLPQLPFRGDDGIFDDNFIEERKQ [R3P] | 4.09 |
| DLRQLPFRGDDGIFDDNFIEERKQ [F1D] | 4.7 |
| PLRQLPFRGDDGIFDDNFIEERKQ [F1P] | 4.99 |
| RLRQLPFRGDDGIFDDNFIEERKQ [F1R] | 4.59 |
| ALRQLPFRGDDGIFDDNFIEERKQ [F1A] | 4.63 |
| WLRQLPFRGDDGIFDDNFIEERKQ [F1W] | 3.03 |
| YLRQLPFRGDDGIFDDNFIEERKQ [F1Y] | 4.18 |
| VLRQLPFRGDDGIFDDNFIEERKQ [F1V] | 3.87 |
| ILRQLPFRGDDGIFDDNFIEERKQ [F1I] | 3.58 |
| KLRQLPFRGDDGIFDDNFIEERKQ [F1K] | 4.68 |
| LLRQLPFRGDDGIFDDNFIEERKQ [F1L] | 3.83 |
| MLRQLPFRGDDGIFDDNFIEERKQ [F1M] | 3.56 |
| TLRQLPFRGDDGIFDDNFIEERKQ [F1T] | 4.59 |
| QLRQLPFRGDDGIFDDNFIEERKQ [F1Q] | 4.96 |
| HLRQLPFRGDDGIFDDNFIEERKQ [F1H] | 5.32 |
| NLRQLPFRGDDGIFDDNFIEERKQ [F1N] | 4.44 |
| CLRQLPFRGDDGIFDDNFIEERKQ [F1C] | 4.1 |
| SLRQLPFRGDDGIFDDNFIEERKQ [F1S] | 4.72 |

Variants of: B2
Assay: as above
Details: c terminus: a fixed tail appended

| Variant | protein stability index |
| --- | --- |
| WTMQAYERNFWDPSPMLDTQQEIK [Q16M] | 1.46 |
| WTMQAYERNFWDPSPVLDTQQEIK [Q16V] | 2.03 |
| WTMQAYERNFWDPSPNLDTQQEIK [Q16N] | 2.2 |
| WTMQAYERNFWDPSPLLDTQQEIK [Q16L] | 2.42 |
| WTMQAYERNFWDPSPTLDTQQEIK [Q16T] | 2.67 |
| WTMQAYERNFWDPSPQLDTQQEWK [I23W] | 2.12 |
| WTMQAYERNFWDPSPQLDTQQESK [I23S] | 3.27 |
| WTMQAYERNFWDPSPQLDTQQEFK [I23F] | 2.43 |
| WTMQAYERNFWDPSPQLDTQQEMK [I23M] | 2.18 |
| WTMQAYERNFWDPSPQLDTQQELK [I23L] | 2.91 |
| WTMQAYERNFWDPSPQLDTQQEEK [I23E] | 3.26 |
| WTMQHYERNFWDPSPQLDTQQEIK [A5H] | 3.47 |
| WTMQTYERNFWDPSPQLDTQQEIK [A5T] | 2.57 |
| WTMQKYERNFWDPSPQLDTQQEIK [A5K] | 2.96 |
| WTMQLYERNFWDPSPQLDTQQEIK [A5L] | 2.66 |
| WTMQGYERNFWDPSPQLDTQQEIK [A5G] | 3.53 |
| WTMQIYERNFWDPSPQLDTQQEIK [A5I] | 1.68 |
| WTMQAYERNFWDPSRQLDTQQEIK [P15R] | 1.99 |
| WTMQAYERNFWDPSLQLDTQQEIK [P15L] | 2.3 |
| WTMQAYERNFWDPSIQLDTQQEIK [P15I] | 2.15 |
| WTMQAYERNFWDPSPQLDTEQEIK [Q20E] | 2.35 |
| WTMQAYERNFWDPSPQLDTTQEIK [Q20T] | 2.04 |
| WTMQAYERNFWDPSPQLDTNQEIK [Q20N] | 2.88 |
| WTMQAYERNFWDPSPQLDTQQEIF [K24F] | 2.01 |
| WTMQAYERNFWDPSPQLDTQQEIE [K24E] | 3.06 |
| WTMQAYERNFWDPSPQLDTQQEIM [K24M] | 1.91 |
| WTMQAYERNFWDPSPQLDTQQEIY [K24Y] | 2.46 |
| WTMQAYERNFWDPSPQLDTQQEIH [K24H] | 2.29 |
| WTMQAYERNFWDPSPQLDTQQEIW [K24W] | 1.46 |
| WTMQAYERNFWDPSPQLDTQQEIS [K24S] | 2.59 |
